These results are taken from paper PMC6335420, “The cell cycle regulator GpsB functions as cytosolic adaptor for multiple cell wall enzymes” (Nature Communications, 2019).

Where a chain is given by its changes, count along the chain named. Residues, ends and D or L forms follow the SMILES beside them. *: point of attachment. Fluorescein(5-Mal) = O=C1OC2(c3ccc(O)cc3Oc3cc(O)ccc32)c2ccc(N3C(=O)CC(*)C3=O)cc21; X1 = CN(C)c1ccc2c(-c3ccc(N4C(=O)CC(*)C4=O)cc3C(=O)[O-])c3ccc(=[N+](C)C)cc-3oc2c1; 5FAM = O=C1OC2(c3ccc(O)cc3Oc3cc(O)ccc32)c2ccc(C(=O)*)cc21

One series deals with T1, BsGpsB1-68Lys32Glu (Bacillus subtilis, UniProt P0CI74, K32E).
T1 construct: His6 (N, cleaved yes); made in house; host or cells: E. coli BL21(DE3)
T1 sequence (P0CI74 1-68 K32E): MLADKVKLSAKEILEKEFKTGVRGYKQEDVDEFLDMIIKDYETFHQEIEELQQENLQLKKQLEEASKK
Put plainly: Fluorescence polarisation binding to BsGpsB1-68Lys32Glu. Conditions: FP, relative to wild-type LmPBPA1 peptide. The source says:
(§1) 75 the BsGpsB5-64:BsPBP11-17 complex.

For the next series, the target named is T2, SpGpsB1-63 (Streptococcus pneumoniae, UniProt Q8DR57).
T2 construct: The SpGpsB1-63 expression construct (pET28SpGpsB1-63) was prepared by PCR amplification of gpsB; His6 (N, cleaved yes); made in house; host or cells: E. coli BL21(DE3)
T2 sequence (Q8DR57 1-63): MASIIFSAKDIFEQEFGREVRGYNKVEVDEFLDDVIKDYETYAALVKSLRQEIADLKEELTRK
Put plainly: Fluorescence polarisation binding to SpGpsB1-63. As to conditions: FP; for reduction in affinity for SpGpsB1-63: relative to wild-type SpPBP2a23-45.
Excerpt: as §1

The target in series [1] is T3, BsPBP1_(1-32), TAMRA-labelled at position 16 (B. subtilis, UniProt P39793 1-32, Ser16Cys, TAMRA (maleimide) at position 16).
T3 construct: PBP1, Bacillus subtilis, residues 1-32; also called BsPBPA1_(1-32); BsPBP1A_(1-32); source: E. coli, His-tagged MBP fusion purified (Ni-NTA), labelled, TEV-cleaved, ultrafiltration
T3 peptide (looked up): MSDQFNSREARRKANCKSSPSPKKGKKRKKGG
Put plainly: fluorescence polarisation; GpsB protein titrated into fluorescently labelled peptide; 10 mM Tris.HCl pH 8.0, 250 mM NaCl, 0.1% reduced Triton X-100; fit to a 1:1 interaction model. As to conditions: both partners purified. A general note: Polarisation of emitted light reports the rotation of a fluorescent probe.

A short description of series [2]: Circular dichroism thermal unfolding of BsGpsB1-68 variants. Format: physicochemical. Conditions: CD at 222 nm vs temperature, 4.5 μM protein, 20 mM sodium phosphate (pH 7.8) 150 mM NaCl, 1 °C/min. On the procedure:
CD spectra were recorded on a JASCO J-810 spectropolarimeter with a PTC-4235 Peltier temperature controller using 1 mm path length quartz cuvettes. For full wavelength scans a scan speed of 10 nm^−1min^−1 and a response time of 4 s were used, the final spectra were the average of at least four measurements. BsPBP1_1-32 CD spectra were recorded at 4 °C in a buffer of 20 mM sodium phosphate, pH 7.3 at a peptide concentration of 25 μM. Peptide helical contents were estimated from molar ellipticities at 222 nm using the equation helix = [θ]222 nm / (39,500(1–2.57/n))[78] where n is the number of residues in the peptide. LmPBPA1_1-15 CD spectra were analysed at 40 μM in 20 mM sodium phosphate buffer, pH 7.8, for samples containing 0, 40 and 60% trifluoroethanol (TFE). For samples containing 80% TFE, 5 mM sodium phosphate buffer, pH 7.8, was used. The CD spectra of BsGpsB1-68 proteins were measured at a concentration of 4.5 μM in a buffer of 20 mM sodium phosphate (pH 7.8) 150 mM NaCl. For thermal melt experiments, a response time of 8 s and scan rate of 1 °C^−1min^−1 were used. All thermal melts were reversible as CD spectra recorded before and after the melts in the wavelength range 200–240 nm could be superimposed.

For the molecule `CSCC[C@H](NC(=O)[C@H](CO)NC(=O)CN)C(=O)N[C@@H](C)C(=O)N[C@@H](CC(=O)O)C(=O)N[C@@H](CCCCN)C(=O)N1CCC[C@H]1C(=O)N[C@@H](CCC(N)=O)C(=O)N[C@H](C(=O)N[C@@H](C)C(=O)N[C@@H](CO)C(=O)N[C@@H](CCC(N)=O)C(=O)N[C@@H](Cc1ccc(O)cc1)C(=O)N[C@@H](CCCNC(=N)N)C(=O)N[C@@H](CC(N)=O)C(=O)N[C@@H](CCCCN)C(=O)N[C@@H](CCC(N)=O)C(=O)N[C@@H](CCCNC(=N)N)C(=O)NCC(=O)NCC(=O)N[C@@H](CSC1CC(=O)N(c2ccc3c(c2)C(=O)OC32c3ccc(O)cc3Oc3cc(O)ccc32)C1=O)C(=O)N[C@@H](CCCCN)C(=O)O)[C@@H](C)O` (some centres unmarked) [Fluorescein-LmPBPA11-20 Arg8AlaSer16Arg] (H-GSMADKPQTASQYRNKQRGGC(Fluorescein(5-Mal))K-OH; N-terminus and C-terminus assumed), at BsGpsB1-68Lys32Glu, the “reduction in affinity for BsGpsB1-68Lys32Glu” value was “at least 10 fold”. For the molecule `CC[C@H](C)[C@H](NC(=O)[C@@H]1CCCN1C(=O)[C@H](CSC1CC(=O)N(c2ccc(-c3c4ccc(=[N+](C)C)cc-4oc4cc(N(C)C)ccc34)c(C(=O)[O-])c2)C1=O)NC(=O)[C@@H](NC(=O)[C@H](CCC(N)=O)NC(=O)[C@H](C)NC(=O)[C@H](CC(C)C)NC(=O)[C@H](CCCCN)NC(=O)[C@H](CCCCN)NC(=O)[C@H](CCCNC(=N)N)NC(=O)[C@H](CC(=O)O)NC(=O)[C@H](CO)NC(=O)[C@H](CCCNC(=N)N)NC(=O)[C@H](CO)NC(=O)[C@H](CCCCN)NC(=O)[C@H](CCCNC(=N)N)NC(=O)[C@H](CC(C)C)NC(=O)[C@@H](NC(=O)[C@@H](NC(=O)[C@H](CO)NC(=O)[C@H](CC(=O)O)NC(=O)[C@H](CO)NC(=O)[C@H](CC(=O)O)NC(=O)[C@H](CCSC)NC(=O)[C@H](CO)NC(=O)CN)[C@@H](C)O)[C@@H](C)CC)C(C)C)C(=O)O` (some centres unmarked) [TAMRA-SpPBP2a23-45 Arg31Lys] (H-GSMDSDSTILRKSRSDRKKLAQVC(X1)PI-OH), the “reduction in affinity for SpGpsB1-63” value at SpGpsB1-63 is given as 2 fold. As for `CC[C@H](C)[C@H](NC(=O)[C@@H]1CCCN1C(=O)[C@H](CSC1CC(=O)N(c2ccc(-c3c4ccc(=[N+](C)C)cc-4oc4cc(N(C)C)ccc34)c(C(=O)[O-])c2)C1=O)NC(=O)[C@@H](NC(=O)[C@H](CCC(N)=O)NC(=O)[C@H](C)NC(=O)[C@H](CC(C)C)NC(=O)[C@H](CCCCN)NC(=O)[C@H](CCCCN)NC(=O)[C@H](CCCNC(=N)N)NC(=O)[C@H](CC(=O)O)NC(=O)[C@H](CO)NC(=O)[C@H](CCCCN)NC(=O)[C@H](CO)NC(=O)[C@H](CCCCN)NC(=O)[C@H](CCCNC(=N)N)NC(=O)[C@H](CC(C)C)NC(=O)[C@@H](NC(=O)[C@@H](NC(=O)[C@H](CO)NC(=O)[C@H](CC(=O)O)NC(=O)[C@H](CO)NC(=O)[C@H](CC(=O)O)NC(=O)[C@H](CCSC)NC(=O)[C@H](CO)NC(=O)CN)[C@@H](C)O)[C@@H](C)CC)C(C)C)C(=O)O` (some centres unmarked) [TAMRA-SpPBP2a23-45 Arg31LysArg33Lys] (H-GSMDSDSTILRKSKSDRKKLAQVC(X1)PI-OH), on SpGpsB1-63, the “reduction in affinity for SpGpsB1-63” value is reported as > 25 fold.

On to `CC[C@H](C)[C@H](NC(=O)[C@H](CC(C)C)NC(=O)[C@H](CCCNC(=N)N)NC(=O)[C@H](CCSC)NC(=O)CNC(=O)c1ccc2c(c1)C(=O)OC21c2ccc(O)cc2Oc2cc(O)ccc21)C(=O)N[C@@H](CS)C(=O)N[C@@H](CCSC)C(=O)N[C@@H](CCCNC(=N)N)C(=O)N[C@@H](CCCCN)C(=O)N[C@@H](Cc1ccccc1)C(=O)N[C@@H](CC(N)=O)C(=O)N[C@@H](CO)C(=O)N[C@@H](Cc1c[nH]cn1)C(=O)N[C@@H](CO)C(=O)N[C@H](C(=O)N1CCC[C@H]1C(=O)N[C@H](C(=O)N[C@@H](CCCNC(=N)N)C(=O)O)[C@@H](C)CC)[C@@H](C)CC` [Fluorescein-SpPBP2b1-17] (5FAM-GMRLICMRKFNSHSIPIR-OH; N-terminus and C-terminus assumed), for which the “binding to SpGpsB1-63 (in words)” value at SpGpsB1-63 is recorded as “not”.

For `CC[C@H](C)[C@H](NC(=O)[C@@H](NC(=O)[C@H](CCCNC(=N)N)NC(=O)[C@H](CCCCN)NC(=O)[C@@H](NC(=O)[C@H](Cc1c[nH]c2ccccc12)NC(=O)[C@H](CCC(=O)O)NC(=O)[C@H](CCSC)NC(=O)CNC(=O)[C@H](CO)NC(=O)CNC(=O)[C@H](CO)NC(=O)CN)[C@@H](C)O)C(C)C)C(=O)N[C@@H](CCCNC(=N)N)C(=O)N[C@@H](Cc1ccc(O)cc1)C(=O)N[C@@H](C)C(=O)N[C@H](C(=O)N[C@@H](CCCCN)C(=O)N[C@@H](CC(N)=O)C(=O)N[C@@H](CCCNC(=N)N)C(=O)N[C@@H](CCCCN)C(=O)N[C@@H](CO)C(=O)N1CCC[C@H]1C(=O)N[C@@H](C)C(=O)N[C@@H](CCC(=O)O)C(=O)N[C@@H](CC(N)=O)C(=O)N[C@@H](CCCNC(=N)N)C(=O)N[C@@H](CCCNC(=N)N)C(=O)N[C@@H](CCCNC(=N)N)C(=O)N[C@H](C(=O)NCC(=O)N[C@@H](CCCCN)C(=O)N[C@@H](CO)C(=O)N[C@@H](CC(C)C)C(=O)N[C@@H](CSC1CC(=O)N(c2ccc3c(c2)C(=O)OC32c3ccc(O)cc3Oc3cc(O)ccc32)C1=O)C(=O)N[C@@H](CO)C(=O)O)C(C)C)[C@@H](C)O` (some centres unmarked) [Fluorescein-SpPBP2x1-29] (H-GSGSGMEWTKRVIRYATKNRKSPAENRRRVGKSLC(Fluorescein(5-Mal))S-OH; N-terminus and C-terminus assumed), the “binding to SpGpsB1-63 (in words)” value at SpGpsB1-63 is reported as “interacts”.

B1: BsGpsB_(1-68)^Asp35Ala (domain or fragment, B. subtilis, UniProt P0CI74 1-68, looked up)
chain: MLADKVKLSAKEILEKEFKTGVRGYKQEDVDKFLAMIIKDYETFHQEIEELQQENLQLKKQLEEASKK
notes: GpsB, Bacillus subtilis, residues 1-68; source: E. coli, purified (Ni-NTA, thrombin, size exclusion)
In the case of B1, in series [1], the “fold reduction in affinity against wild type” value is > 8 fold.

B2: BsGpsB^Tyr25Phe: BsGpsB1-68 variant (protein)
chain: B1 chain with Y25F, A35D
modifications: left off: His6, end not stated, cleaved
notes: BsGpsB1-68 variant
For the molecule B2, in series [2], the “impact of mutation on protein stability” value was “little impact on protein stability”.

B3: BsGpsB1-68^Glu17Ala: BsGpsB1-68 variant (protein)
chain: B1 chain with E17A, A35D
modifications: left off: His6, N-terminal, cleaved
notes: BsGpsB1-68 variant
B3: the “impact of mutation on protein stability” value in series [2] is given as “little impact on protein stability”.

B4: BsGpsB1-68^Asp31Ala: BsGpsB1-68 variant (protein)
chain: B1 chain with D31A, A35D
modifications: left off: His6, N-terminal, cleaved
notes: BsGpsB1-68 variant
In the case of B4, in series [2], the “impact of mutation on protein stability” value is “little impact on protein stability”.

B5: BsGpsB1-68^Asp35Ala: BsGpsB1-68 variant (protein)
chain: B1 chain
modifications: left off: His6, N-terminal, cleaved
notes: BsGpsB1-68 variant
For the molecule B5, the “impact of mutation on protein stability” value in series [2] is listed as “little impact on protein stability”.

B6: BsGpsB_(1-68)^Glu17Ala (domain or fragment, B. subtilis, UniProt P0CI74 1-68, looked up)
chain: B1 chain with E17A, A35D
notes: as for B1
As for B6, in series [1], the “fold reduction in affinity against wild type” value was > 8 fold.
